Experimental data taken from the supplement of paper PMC5998384.

Legend:
[1] = test system: HeLa Kyoto; test: melting temperature (median over replicates), in situ; higher = more thermally stable
[2] = test system: HeLa Kyoto; test: solubility change mitosis vs G1/S (difference of NP-40 vs SDS log2 ratios) (log2 ratio difference); higher = more soluble in mitosis
[3] = test system: HeLa Kyoto; test: thermal stability score vs G1/S (z-score of summed log2 fold changes over temperatures); higher = more thermally stable than in G1/S
[4] = test system: HeLa Kyoto; test: solubility in G1/S (NP-40 vs SDS abundance) (log2 ratio); higher = more soluble; conditions: cell cycle stage: G1/S
[5] = cell cycle stage: early G1 (4.5 h after nocodazole release)
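Throughout, for melting temperature (median over replicates), in situ: HeLa Kyoto cells synchronized by double thymidine or nocodazole block, proteins quantified by TMT10plex mass spectrometry, three independent biological replicates.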
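Throughout, for solubility change mitosis vs G1/S (difference of NP-40 vs SDS log2 ratios): synchronized HeLa Kyoto cells (double thymidine block for G1/S, nocodazole release for mitosis), protein amounts in NP-40 versus SDS lysates quantified by mass spectrometry, three biological replicates.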
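Throughout, for solubility in G1/S (NP-40 vs SDS abundance): HeLa Kyoto cells arrested at G1/S by double thymidine block, proteins quantified by TMT10plex mass spectrometry in mild NP-40 versus SDS extracts, three biological replicates.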
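Throughout, for thermal stability score vs G1/S (z-score of summed log2 fold changes over temperatures): synchronized HeLa Kyoto cells, proteins quantified by TMT10plex mass spectrometry, three biological replicates, mitosis taken 0.5 h after nocodazole release, G1/S directly after double thymidine block.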

Row | Sequence | melting temperature ([1]; cell cycle stage: G1/S) [°C] | melting temperature ([1]; cell cycle stage: mitosis) [°C] | solubility change mitosis (log2) [2] | thermal stability score [3, 5] | thermal stability score ([3]; cell cycle stage: mitosis) | solubility in G1/S (log2) [4]
1 | MDMKRRIHLELRNRTPAAVRELVLDNCKSNDGKIEGLTAEFVNLEFLSLINVGLISVSNLPKLPKLKKLELSENRIFGGLDMLAEKLPNLTHLNLSGNKLKDISTLEPLKKLECLKSLDLFNCEVTNLNDYRESVFKLLPQLTYLDGYDREDQEAPDSDAEVDGVDEEEEDEEGEDEEDEDDEDGEEEEFDEEDDEDEDVEGDEDDDEVSEEEEEFGLDEEDEDEDEDEEEEEGGKGEKRKRETDDEGEDD [ANP32B] | 48.5 | 53.3 | 0.205 | 2.33 | 3.78 | -0.0836
2 | MDNQCTVQVRLELGHRAQLRKKPTTEGFTHDWMVFVRGPEQCDIQHFVEKVVFWLHDSFPKPRRVCKEPPYKVEESGYAGFIMPIEVHFKNKEEPRKVCFTYDLFLNLEGNPPVNHLRCEKLTFNNPTTEFRYKLLRAGGVMVMPEGADTVSRPSPDYPMLPTIPLSAFSDPKKTKPSHGSKDANKESSKTSKPHKVTKEHRERPRKDSESKSSSKELEREQAKSSKDTSRKLGEGRLPKEEKAPPPKAAFKEPKMALKETKLESTSPKGGPPPPPPPPPRASSKRPATADSPKPSAKKQKKSSSKGSRSAPGTSPRTSSSSSFSDKKPAKDKSSTRGEKVKAESEPREAKKALEVEESNSEDEASFKSESAQSSPSNSSSSSDSSSDSDFEPSQNHSQGPLRSMVEDLQSEESDEDDSSSGEEAAGKTNPGRDSRLSFSDSESDNSADSSLPSREPPPPQKPPPPNSKVSGRRSPESCSKPEKILKKGTYDKAYTDELVELHRRLMALRERNVLQQIVNLIEETGHFNVTNTTFDFDLFSLDETTVRKLQSCLEAVAT [MLLT1] | 50.5 | 53 | 0.264 | -0.27 | 0.333 | -0.205
3 | MDPAARVVRALWPGGCALAWRLGGRPQPLLPTQSRAGFAGAAGGPSPVAAARKGSPRLLGAAALALGGALGLYHTARWHLRAQDLHAERSAAQLSLSSRLQLTLYQYKTCPFCSKVRAFLDFHALPYQVVEVNPVRRAEIKFSSYRKVPILVAQEGESSQQLNDSSVIISALKTYLVSGQPLEEIITYYPAMKAVNEQGKEVTEFGNKYWLMLNEKEAQQVYGGKEARTEEMKWRQWADDWLVHLISPNVYRTPTEALASFDYIVREGKFGAVEGAVAKYMGAAAMYLISKRLKSRHRLQDNVREDLYEAADKWVAAVGKDRPFMGGQKPNLADLAVYGVLRVMEGLDAFDDLMQHTHIQPWYLRVERAITEASPAH [PTGES2] | 54.6 | 54.9 | -0.0374 | 1.5 | 0.796 | 0.0509
4 | MDPECAQLLPALCAVLVDPRQPVADDTCLEKLLDWFKTVTEGESSVVLLQEHPCLVELLSHVLKVQDLSSGVLSFSLRLAGTFAAQENCFQYLQQGELLPGLFGEPGPLGRATWAVPTVRSGWIQGLRSLAQHPSALRFLADHGAVDTIFSLQGDSSLFVASAASQLLVHVLALSMRGGAEGQPCLPGGDWPACAQKIMDHVEESLCSAATPKVTQALNVLTTTFGRCQSPWTEALWVRLSPRVACLLERDPIPAAHSFVDLLLCVARSPVFSSSDGSLWETVARALSCLGPTHMGPLALGILKLEHCPQALRTQAFQVLLQPLACVLKATVQAPGPPGLLDGTADDATTVDTLLASKSSCAGLLCRTLAHLEELQPLPQRPSPWPQASLLGATVTVLRLCDGSAAPASSVGGHLCGTLAGCVRVQRAALDFLGTLSQGTGPQELVTQALAVLLECLESPGSSPTVLKKAFQATLRWLLSSPKTPGCSDLGPLIPQFLRELFPVLQKRLCHPCWEVRDSALEFLTQLSRHWGGQADFRCALLASEVPQLALQLLQDPESYVRASAVTAMGQLSSQGLHAPTSPEHAEARQSLFLELLHILSVDSEGFPRRAVMQVFTEWLRDGHADAAQDTEQFVATVLQAASRDLDWEVRAQGLELALVFLGQTLGPPRTHCPYAVALPEVAPAQPLTEALRALCHVGLFDFAFCALFDCDRPVAQKSCDLLLFLRDKIASYSSLREARGSPNTASAEATLPRWRAGEQAQPPGDQEPEAVLAMLRSLDLEGLRSTLAESSDHVEKSPQSLLQDMLATGGFLQGDEADCY [BRAT1] | 46.5 | 48.4 | -0.141 | 1.55 | 4.01 | 0.0286
5 | MDPFTEKLLERTRARRENLQRKMAERPTAAPRSMTHAKRARQPLSEASNQQPLSGGEEKSCTKPSPSKKRCSDNTEVEVSNLENKQPVESTSAKSCSPSPVSPQVQPQAADTISDSVAVPASLLGMRRGLNSRLEATAASSVKTRMQKLAEQRRRWDNDDMTDDIPESSLFSPMPSEEKAASPPRPLLSNASATPVGRRGRLANLAATICSWEDDVNHSFAKQNSVQEQPGTACLSKFSSASGASARINSSSVKQEATFCSQRDGDASLNKALSSSADDASLVNASISSSVKATSPVKSTTSITDAKSCEGQNPELLPKTPISPLKTGVSKPIVKSTLSQTVPSKGELSREICLQSQSKDKSTTPGGTGIKPFLERFGERCQEHSKESPARSTPHRTPIITPNTKAIQERLFKQDTSSSTTHLAQQLKQERQKELACLRGRFDKGNIWSAEKGGNSKSKQLETKQETHCQSTPLKKHQGVSKTQSLPVTEKVTENQIPAKNSSTEPKGFTECEMTKSSPLKITLFLEEDKSLKVTSDPKVEQKIEVIREIEMSVDDDDINSSKVINDLFSDVLEEGELDMEKSQEEMDQALAESSEEQEDALNISSMSLLAPLAQTVGVVSPESLVSTPRLELKDTSRSDESPKPGKFQRTRVPRAESGDSLGSEDRDLLYSIDAYRSQRFKETERPSIKQVIVRKEDVTSKLDEKNNAFPCQVNIKQKMQELNNEINMQQTVIYQASQALNCCVDEEHGKGSLEEAEAERLLLIATGKRTLLIDELNKLKNEGPQRKNKASPQSEFMPSKGSVTLSEIRLPLKADFVCSTVQKPDAANYYYLIILKAGAENMVATPLASTSNSLNGDALTFTTTFTLQDVSNDFEINIEVYSLVQKKDPSGLDKKKKTSKSKAITPKRLLTSITTKSNIHSSVMASPGGLSAVRTSNFALVGSYTLSLSSVGNTKFVLDKVPFLSSLEGHIYLKIKCQVNSSVEERGFLTIFEDVSGFGAWHRRWCVLSGNCISYWTYPDDEKRKNPIGRINLANCTSRQIEPANREFCARRNTFELITVRPQREDDRETLVSQCRDTLCVTKNWLSADTKEERDLWMQKLNQVLVDIRLWQPDACYKPIGKP [ANLN] | 47 | 49.6 | 0.0107 | 5.84 | 9.22 | -0.029
